Reference: patent US20110177070A1 (EMERGENT PRODUCT DEVELOPMENT SEATLLE, published 2011)

T1: recombinant human sIL-6R (human, UniProt P08887 20-358, limits assumed)
T1 construct: Bought soluble receptor; also called human soluble IL6R; IL6R alone
T1 sequence (looked up): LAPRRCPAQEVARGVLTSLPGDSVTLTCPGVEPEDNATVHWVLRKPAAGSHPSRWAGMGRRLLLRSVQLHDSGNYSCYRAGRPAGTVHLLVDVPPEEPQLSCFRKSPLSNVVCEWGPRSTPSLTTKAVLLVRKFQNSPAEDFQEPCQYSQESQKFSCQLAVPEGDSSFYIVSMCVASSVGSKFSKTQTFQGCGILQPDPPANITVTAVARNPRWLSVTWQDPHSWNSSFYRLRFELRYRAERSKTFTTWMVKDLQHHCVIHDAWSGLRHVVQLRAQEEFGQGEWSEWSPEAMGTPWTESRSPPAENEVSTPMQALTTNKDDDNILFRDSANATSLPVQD

B1: Xceptor fusion protein TRU(XT6)-1058 (Fc fusion)
chain: LPAQVAFTPYAPEPGSTCRLREYYDQTAQMCCSKCSPGQHAKVFCTKTSDTVCDSCEDSTYTQLWNWVPECLSCGSRCSSDQVETQACTREQNRICTCRPGWYCALSKQEGCRLCAPLRKCRPGFGVARPGTETSDVVCKPCAPGTFSNTTSSTDICRPHQICNVVAIPGNASMDAVCTSTSPTRSMAPGAVHLPQPVSTRSQHTQPTPEPSTAPSTSFLLPMGPSPPAEGSTGDTGEPKSSDKTHTCPPCPAPEAAGAPSVFLFPPKPKDTLMISRTPEVTCVVVDVSHEDPEVKFNWYVDGVEVHNAKTKPREEQYNSTYRVVSVLTVLHQDWLNGKAYACAVSNKALPAPIEKTISKAKGQPREPQVYTLPPSRDELTKNQVSLTCLVKGFYPSDIAVEWESNGQPENNYKTTPPVLDSDGSFFLYSKLTVDKSRWQQGNVFSCSVMHEALHNHYTQKSLSLSPGQRHNNSSLNTRTQKARHSPNSEVQLLESGGGLVQPGGSLRLSCAASGFTFSMYTMHWVRQAPGKGLEWVSWISPSGGWTKYADSVKGRFTISRDNSKNTLYLQMNSLRAEDTAVYYCAVSPWGGPFDYWGQGTLVTVSSGGGGSGGGGSGGGGSQDIQMTQSPSTLSASVGDRVTITCRASQSISSWLAWYQQKPGKAPKLLIYKASTLESGVPSRFSAGGSGTEFTLTISSLQPDDFGTYYCQQYNSYSLTFGGGTKVEII
B2: Xceptor fusion protein TRU(XT6)-1019 (Fc fusion)
chain: LPAQVAFTPYAPEPGSTCRLREYYDQTAQMCCSKCSPGQHAKVFCTKTSDTVCDSCEDSTYTQLWNWVPECLSCGSRCSSDQVETQACTREQNRICTCRPGWYCALSKQEGCRLCAPLRKCRPGFGVARPGTETSDVVCKPCAPGTFSNTTSSTDICRPHQICNVVAIPGNASMDAVCTSTSPTRSMAPGAVHLPQPVSTRSQHTQPTPEPSTAPSTSFLLPMGPSPPAEGSTGDTGEPKSSDKTHTCPPCPAPEAAGAPSVFLFPPKPKDTLMISRTPEVTCVVVDVSHEDPEVKFNWYVDGVEVHNAKTKPREEQYNSTYRVVSVLTVLHQDWLNGKAYACAVSNKALPAPIEKTISKAKGQPREPQVYTLPPSRDELTKNQVSLTCLVKGFYPSDIAVEWESNGQPENNYKTTPPVLDSDGSFFLYSKLTVDKSRWQQGNVFSCSVMHEALHNHYTQKSLSLSPGQRHNNSSLNTRTQKARHSPNSEVQLLESGGGLVQPGGSLRLSCAASGFTFSWYLMHWVRQAPGKGLEWVSGIWPSGGHTLYADSVKGRFTISRDNSKNTLYLQMNSLRAEDTAVYYCAREPLLWFGELSYNWFDPWGQGTLVTVSSGGGGSGGGGSGGGGSQDIQMTQSPSSVSASVGDRVTITCRASQGISSWLAWYQQKPGKAPKLLIYAASSLQSGVPSRFSGSGSGTDFTLTISSLQPEDFATYYCQQANSFPLTFGGGTKVEIK
notes: also called Xceptor TNFRSF1B::anti-HIL6
B3: Xceptor fusion protein TRU(X6T)-1019 (Fc fusion)
chain: EVQLLESGGGLVQPGGSLRLSCAASGFTFSWYLMHWVRQAPGKGLEWVSGIWPSGGHTLYADSVKGRFTISRDNSKNTLYLQMNSLRAEDTAVYYCAREPLLWFGELSYNWFDPWGQGTLVTVSSGGGGSGGGGSGGGGSQDIQMTQSPSSVSASVGDRVTITCRASQGISSWLAWYQQKPGKAPKLLIYAASSLQSGVPSRFSGSGSGTDFTLTISSLQPEDFATYYCQQANSFPLTFGGGTKVEIKTGEPKSSDKTHTCPPCPAPEAAGAPSVFLFPPKPKDTLMISRTPEVTCVVVDVSHEDPEVKFNWYVDGVEVHNAKTKPREEQYNSTYRVVSVLTVLHQDWLNGKAYACAVSNKALPAPIEKTISKAKGQPREPQVYTLPPSRDELTKNQVSLTCLVKGFYPSDIAVEWESNGQPENNYKTTPPVLDSDGSFFLYSKLTVDKSRWQQGNVFSCSVMHEALHNHYTQKSLSLSPGQRHNNSSLNTRTQKARHSPNSLPAQVAFTPYAPEPGSTCRLREYYDQTAQMCCSKCSPGQHAKVFCTKTSDTVCDSCEDSTYTQLWNWVPECLSCGSRCSSDQVETQACTREQNRICTCRPGWYCALSKQEGCRLCAPLRKCRPGFGVARPGTETSDVVCKPCAPGTFSNTTSSTDICRPHQICNVVAIPGNASMDAVCTSTSPTRSMAPGAVHLPQPVSTRSQHTQPTPEPSTAPSTSFLLPMGPSPPAEGSTGD
B4: Xceptor fusion protein TRU(XT6)-1002 (Fc fusion)
chain: LPAQVAFTPYAPEPGSTCRLREYYDQTAQMCCSKCSPGQHAKVFCTKTSDTVCDSCEDSTYTQLWNWVPECLSCGSRCSSDQVETQACTREQNRICTCRPGWYCALSKQEGCRLCAPLRKCRPGFGVARPGTETSDVVCKPCAPGTFSNTTSSTDICRPHQICNVVAIPGNASMDAVCTSTSPTRSMAPGAVHLPQPVSTRSQHTQPTPEPSTAPSTSFLLPMGPSPPAEGSTGDTGEPKSSDKTHTCPPCPAPEAAGAPSVFLFPPKPKDTLMISRTPEVTCVVVDVSHEDPEVKFNWYVDGVEVHNAKTKPREEQYNSTYRVVSVLTVLHQDWLNGKAYACAVSNKALPAPIEKTISKAKGQPREPQVYTLPPSRDELTKNQVSLTCLVKGFYPSDIAVEWESNGQPENNYKTTPPVLDSDGSFFLYSKLTVDKSRWQQGNVFSCSVMHEALHNHYTQKSLSLSPGQRHNNSSLNTRTQKARHSPNSEVQLLESGGGLVQPGGSLRLSCAASGFTFSFYQMHWVRQAPGKGLEWVSGIYPSGGYTKYADSVKGRFTISRDNSKNTLYLQMNSLRAEDTAVYYCARDLGYGSSWYYFDYWGQGTLVTVSSGGGGSGGGGSGGGGSQSALTQPASVSGSPGQSITISCSGTDSDVGGYNHVSWYQQHPGKAPKLIIYDVDHRPSGISNRFSGSKSGNTASLTISGLQAEDEADYYCSSYRSGSTYVFGTGTKVTVL
notes: as for B2

These binders were tested against T2, recombinant human TNF-α (human, UniProt P01375 77-233) (assay: sandwich ELISA: Xceptor captured on anti-human IgG-Fc, 2 ng/ml TNF-α, anti-human TNF-α-biotin).
T2 construct: also called rhTNF-α
T2 sequence (P01375 77-233 limits assumed): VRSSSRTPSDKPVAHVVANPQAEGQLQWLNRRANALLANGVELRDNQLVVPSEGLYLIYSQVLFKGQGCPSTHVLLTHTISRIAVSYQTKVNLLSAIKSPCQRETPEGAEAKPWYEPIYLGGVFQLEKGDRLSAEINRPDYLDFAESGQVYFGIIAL
Description: Added to each well of a 96-well plate was 100 μl goat anti-human IgG-Fc (ICN Pharmaceuticals, Costa Mesa, Calif.) from a 2 μg/ml solution in PBS, pH 7.2-7.4. The plate was covered, and incubated overnight at 4° C. After washing four times with PBS-T, 250 μl Blocking buffer was added to each well, the plate was covered, and incubated at room temperature for 2 hours (or at 4° C. overnight). After washing the plate three times with PBS-T, added in duplicate wells to the anti-human IgG-Fc coated plate was 100 μl/well Xceptor TNFRSF1B::anti-HIL6 samples, positive controls Enbrel® (etanercept) and recombinant human TNFR2 (TNFRSF1B)-Fc chimera (R&D Systems, Minneapolis, Minn.), and negative controls human IgG or human gp130-Fc chimera (R&D Systems), each serially diluted three-fold in Working buffer starting at 300 ng/ml, the plate was covered, and incubated at room temperature for about 1 to 2 hours. After washing the plate five times with PBS-T, added in duplicate wells was 100 μl/well recombinant human TNF-α (R&D Systems) from a 2 ng/ml solution in Working buffer, the plate was covered, and incubated at room temperature for about 1 to 2 hours. After washing the plate five times with PBS-T, added 100 μl/well anti-human TNF-α-biotin (R&D Systems) from a 200 ng/ml solution in Working buffer, the plate was covered, and incubated at room temperature for about 1 to 2 hours. After washing the plate five times with PBS-T, 100 μl per well horse radish peroxidase-conjugated streptavidin (Jackson ImmunoResearch, West Grove, Pa.) diluted 1:1,000 in Working buffer was added, the plate was covered, and incubated at room temperature for 30 minutes. After washing the plate six times with PBS-T, 100 μl per well 3,3,5,5-tetramentylbenzidine (TMB) substrate solution (Pierce, Rockford, Ill.) was added for about 3 to 5 minutes and then the reaction was stopped with 50 μl Stop buffer (1N H₂SO₄) per well. The absorbance of each well was read at 450 nm.

binding result	Binder
binds	B1
binds	B2
binds	B3
binds	B4

Each binder was assayed against T1, recombinant human sIL-6R (assay: sandwich ELISA: Xceptor captured on anti-human IgG-Fc, sIL-6R, anti-human IL-6R-biotin).
Description: Added to each well of a 96-well plate was 100 μl goat anti-human IgG-Fc (ICN Pharmaceuticals, Costa Mesa, Calif.) from a 2 μg/ml solution in PBS, pH 7.2-7.4, The plates were covered, and incubated overnight at 4° C. After washing four times with PBS-T, 250 μl Blocking buffer (PBS-T with 3% BSA or 10% normal goat serum) was added to each well, the plate was covered, and incubated at room temperature for 2 hours (or at 4° C. overnight). After washing the plate three times with PBS-T, added in duplicate wells to the anti-human IgG-Fc coated plate was 100 μl/well Xceptor TNFRSF1B::anti-HIL6 samples, positive control anti-human IL-6R(R&D Systems, Minneapolis, Minn.) and negative controls human IgG or human gp130-Fc chimera (R&D Systems), each serially diluted three-fold in Working buffer starting at 300 ng/ml, the plate was covered, and incubated at room temperature for about 1 to 2 hours. After washing the plate five times with PBS-T, added in duplicate wells was 100 μl/well recombinant human sIL-6R(R&D Systems) from a 75 pM solution in Working buffer, the plate was covered, and incubated at room temperature for about 1 to 2 hours. After washing the plate five times with PBS-T, added 100 μl/well anti-human IL-6R-biotin (R&D Systems) from a 100 ng/ml solution in Working buffer, the plate was covered, and incubated at room temperature for about 1 to 2 hours. After washing the plate five times with PBS-T, 100 μl per well horse radish peroxidase-conjugated streptavidin (Zymed, San Francisco, Calif.) diluted 1:4,000 in Working buffer was added, the plate was covered, and incubated at room temperature for 30 minutes. After washing the plate six times with PBS-T, 100 μl per well 3,3,5,5-tetramentylbenzidine (TMB) substrate solution (Pierce, Rockford, Ill.) was added for about 3 to 5 minutes and then the reaction was stopped with 50 μl Stop buffer (1N H₂SO₄) per well. The absorbance of each well was read at 450 nm.

Binder	binding result
B1	no binding (tested: Xceptor from 300 ng/ml; sIL-6R 75 pM)
B2	no binding (tested: Xceptor from 300 ng/ml; sIL-6R 75 pM)
B3	no binding (tested: Xceptor from 300 ng/ml; sIL-6R 75 pM)
B4	no binding (tested: Xceptor from 300 ng/ml; sIL-6R 75 pM)
